For assay [1], the target named is T1, VCAM-1 expression in the atherosclerotic lesion (Mus musculus, UniProt P29533).
T1 construct: The inventors observed a positive VCAM-1 staining in the atherosclerotic lesion as compared with a contralateral vessel; from tissue; host or cells: ligated left carotid artery (atherosclerotic lesion) of living ApoE-/- mice
T1 sequence (P29533 25-739): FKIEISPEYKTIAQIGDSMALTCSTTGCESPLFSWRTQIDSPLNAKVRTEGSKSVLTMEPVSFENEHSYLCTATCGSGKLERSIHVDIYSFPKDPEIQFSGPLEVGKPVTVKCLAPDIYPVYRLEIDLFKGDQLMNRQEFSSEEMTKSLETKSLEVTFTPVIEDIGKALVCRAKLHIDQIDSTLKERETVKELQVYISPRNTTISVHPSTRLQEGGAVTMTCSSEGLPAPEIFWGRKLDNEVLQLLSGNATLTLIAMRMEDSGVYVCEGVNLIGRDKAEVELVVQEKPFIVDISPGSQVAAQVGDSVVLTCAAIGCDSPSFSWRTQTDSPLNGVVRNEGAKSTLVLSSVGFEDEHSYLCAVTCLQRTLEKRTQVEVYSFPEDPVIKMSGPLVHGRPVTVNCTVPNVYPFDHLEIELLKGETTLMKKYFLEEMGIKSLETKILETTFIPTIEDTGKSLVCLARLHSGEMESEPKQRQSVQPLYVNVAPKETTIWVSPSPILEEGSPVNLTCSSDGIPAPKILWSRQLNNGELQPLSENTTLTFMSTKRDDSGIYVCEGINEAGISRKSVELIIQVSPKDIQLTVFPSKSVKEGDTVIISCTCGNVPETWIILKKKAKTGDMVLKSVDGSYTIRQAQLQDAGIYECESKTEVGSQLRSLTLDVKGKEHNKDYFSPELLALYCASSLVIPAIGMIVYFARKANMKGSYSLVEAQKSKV
Kind of assay: In vivo whole-body planar imaging. Also noted: species or system ApoE−/− mice. The conditions noted are these: for Left-to-right carotid activity ratio from quantified planar images compared to EP43: FIG. 8, FIG. 9; for Non invasive imaging of tracer uptake in the carotid atherosclerotic lesion: whole-body planar images, similar dose of tracer, FIG. 6. On the procedure:
In vivo planar imaging was performed using a small-animal dedicated gamma-camera equipped with a parallel-hole collimator.

Assay [2] has as its target T1, VCAM-1 expression in the atherosclerotic lesion. In words: Carotid activity ratios from gamma-well counting of excised vessels and blood. The format is in vivo, ApoE−/− mice. The conditions noted are these: for Left-to-right carotid artery activity ratio compared with EP43: FIG. 4; for Left carotid-to-blood activity ratio compared with EP43: FIG. 5. From the text: The inventors also analyzed the left-to-right carotid activity ratios (FIG. 1) and left carotid-to-blood activity ratios (FIG. 2). These ratios were obtained from gamma-well counting of excised vessels and blood.

In another assay the target is T2, VCAM-1 (Homo sapiens, UniProt P19320).
T2 sequence (P19320 25-739): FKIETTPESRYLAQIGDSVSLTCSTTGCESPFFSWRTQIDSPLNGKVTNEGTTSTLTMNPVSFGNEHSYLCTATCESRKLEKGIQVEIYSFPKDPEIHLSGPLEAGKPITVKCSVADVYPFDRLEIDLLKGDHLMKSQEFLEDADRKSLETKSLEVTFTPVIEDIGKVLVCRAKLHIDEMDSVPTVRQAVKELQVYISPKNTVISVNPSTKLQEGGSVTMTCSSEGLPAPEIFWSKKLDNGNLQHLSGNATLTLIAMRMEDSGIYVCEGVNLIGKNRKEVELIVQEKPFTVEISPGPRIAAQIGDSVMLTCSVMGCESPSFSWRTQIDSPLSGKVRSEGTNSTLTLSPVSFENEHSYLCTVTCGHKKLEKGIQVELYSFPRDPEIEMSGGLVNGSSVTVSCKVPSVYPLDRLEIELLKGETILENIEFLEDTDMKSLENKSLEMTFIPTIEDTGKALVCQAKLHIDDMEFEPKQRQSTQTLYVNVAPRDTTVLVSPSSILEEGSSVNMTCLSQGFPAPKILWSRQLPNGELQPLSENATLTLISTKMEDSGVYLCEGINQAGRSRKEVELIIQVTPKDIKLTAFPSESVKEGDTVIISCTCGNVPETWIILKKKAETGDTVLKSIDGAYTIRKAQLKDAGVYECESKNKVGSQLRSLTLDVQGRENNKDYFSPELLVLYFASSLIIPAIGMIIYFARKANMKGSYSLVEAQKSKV
The conditions noted are these: Ling et al. (2000); cited from earlier work.

Assay [3] addresses T3, VCAM-1 expression in atherosclerotic lesions (Mus musculus, UniProt P29533).
T3 construct: The inventors observed a positive VCAM-1 staining in the atherosclerotic lesion as compared with a contralateral vessel; from tissue; host or cells: ligated left carotid artery (atherosclerotic lesion) of living ApoE-/- mice
T3 sequence (P29533 25-739): T1 sequence (P29533 25-739)
In words: In vivo pinhole SPECT imaging. Also noted: species or system ApoE−/− mice. How it is done:
In vivo pinhole SPECT imaging was performed using a small-animal dedicated gamma-camera equipped with a pinhole collimator for high-resolution imaging.

Assay [4] in a line: Organ biodistribution of 99mTc-labelled tracers by gamma-well counting of excised organs. The conditions noted are these: 3 hours after injection.
Description: An experimental model of ApoE^−/− mice with left carotid artery ligation was used.
Left carotid artery ligation was performed under anesthesia and the animals were returned to their cages. Three weeks later, the animals were re-anesthetized and the radiotracers were injected in a lateral tail vein. Planar imaging was performed for 3 hours before the animals were euthanized. The major organs were excised, weighed and gamma-well counted for the determination of the tracers' biodistribution.
The mark [5] stands for this setting: high resolution pinhole SPECT, FIG. 10.

Where no end group is shown, it is not given here.

As for HGRANLRILARA (also: 99mTc label) [EP51], the “Left-to-right carotid activity ratio from quantified planar images compared to EP43” value in assay [1] was “did not display improved”. Moreover, in assay [2], the “Left-to-right carotid artery activity ratio compared with EP43” value is reported as “did not display improved” and the “Left carotid-to-blood activity ratio compared with EP43” value is on record as “did not display improved”.

For “HGRENLRIALRY [B2702-p, parent tracer, reference compound]”, in the assay with VCAM-1, the “Binding to VCAM-1” value is “bind specifically”. Further, in assay [1], the “Non invasive imaging of tracer uptake in the carotid atherosclerotic lesion” value is “high circulating blood activity precluded the non invasive imaging”.

In the case of “YRLAIRLNER RENLRIALRY (YRLAIRLNERRENLRIALRY; B2702-rp)”, in the assay with VCAM-1, the “Binding to VCAM-1” value is “bind specifically”.

On to “HGRANLRILARY (not fully specified; also: 99mTc label) [EP43]”, for which the “Quantification of planar images, compared with other evaluated tracers” value in assay [1] (FIG. 7) was “superiority”. Also, the “Non invasive imaging of tracer uptake in the carotid atherosclerotic lesion” value in assay [1] is given as “allowed the detection of VCAM-1 expression in the atherosclerotic lesion”. Further, the “Tracer activity in the atherosclerotic lesion versus contralateral vessel, image quantification” value in assay [3] (all animals, FIG. 11) is reported as “significantly higher mean tracer activity”. Also, the “In vivo SPECT imaging of VCAM-1 expression in atherosclerotic lesions” value in assay [3] (conclusion) is given as “allowed in vivo SPECT imaging of VCAM-1 expression in atherosclerotic lesions”. For the same sequence, in assay [3] (setting [5]), the “Tracer activity in the right carotid area” value was “no significant tracer activity could be detected” and the “Tracer uptake at the atherosclerotic lesion (left carotid)” value is “uptake at the level of the atherosclerotic lesion”. For the same sequence, in assay [4], the “Left carotid activity, compared among tracers” value is “highest left carotid activity” and the “Tracer activity in the atherosclerotic lesion versus contralateral, control carotid” value is on record as “significantly higher”. In addition, the “Left-to-right carotid activity ratio versus B2702-p” value in assay [2] (gamma-well counting, FIG. 1) is on record as “significantly higher”. The “Left carotid-to-blood activity ratio versus B2702-p” value in assay [2] (gamma-well counting, FIG. 2) is given as “significantly higher”.

As to HGRANLRILAAY (also: 99mTc label) [EP52], the “Left-to-right carotid activity ratio from quantified planar images compared to EP43” value in assay [1] is “did not display improved”. Further, in assay [2], the “Left-to-right carotid artery activity ratio compared with EP43” value was “did not display improved” and the “Left carotid-to-blood activity ratio compared with EP43” value is “did not display improved”.

(Values after patent publication US20120034163A1, “NON-INVASIVE TOOLS FOR DETECTING VULNERABLE ATHEROSCLEROTIC PLAQUES” (UNIVERSITE JOSEPH FOURIER, priority 2009, published 2012).)
